In patent US20240000961A1, “ANTIBODY-BASED CONJUGATE FOR ENHANCING THERAPEUTIC EFFECT OF TARGETED THERAPEUTIC AGENT” (THE CATHOLIC UNIVERSITY OF KOREA INDUSTRY-ACADEMIC …, priority 2020, published 2024):

What was measured:
L929 normal cells = assay type: cell-based; details: for toxicity: L929, at a concentration less than 10 μl/ml; for cytotoxicity: L929 normal cells, MTT, treated 4 hours then cultured 1 day
Experimental: (§3) Thereafter, the cells were washed with a buffer solution, and further cultured for 1 day by adding a clean medium thereto.
(§4) The cultured cells were treated with MTT reagent and further cultured for 3 hours, then the culture solution and the MTT reagent were both removed, and dimethyl sulfoxide was added to dissolve formazan formed in the cells. Thereafter, absorbance was measured at 570 nm to compare the amounts of formazan formed and analyze the viability and cytotoxicity of cancer cells.

NIH3T3 normal cells = assay type: cell-based; details: for toxicity: NIH3T3, at a concentration less than 10 μl/ml; for cytotoxicity: NIH3T3 normal cells, MTT, treated 4 hours then cultured 1 day
Experimental: as §3, §4

[1] = tested on: A549 lung cancer cell line expressing PD-L1; assay type: cell-based
Experimental: (§1) Thereafter, the viability and cytotoxicity of cells were analyzed in the same manner as in Experimental Example 2-1.
(§2) Lung cancer and colorectal cancer cell lines expressing PD-L1 (A549 and HCT116, respectively) were cultured, and then treated with an avelumab-succinyl-Pluronic conjugate. Thereafter, the viability and cytotoxicity of cells were analyzed in the same manner as in Experimental Example 2-1.

[2] = tested on: HCT116 (HCTE116) colorectal cancer cell line expressing PD-L1; assay type: cell-based
Experimental: as §1, §2

[3] = tested on: SKOV3 cells, ovarian cell line expressing the EGFR
Experimental: as §3, §4

[4] = tested on: NIH-3T3 cells (do not express EGFR); details: NIH-3T3, 2 hours, flow cytometer; non-specific inflow
Experimental: Thereafter, the cells were washed with a buffer solution and the targeting ability to each type of cell was analyzed by a flow cytometer.

Substance	toxicity (L929 normal cells)	toxicity (NIH3T3 normal cells)	cytotoxicity (L929 normal cells)	cytotoxicity (NIH3T3 normal cells)	further results
avelumab-maleimide-Pluronic F68 [AVE-Mal-PF68]	non-toxic	non-toxic			
avelumab-maleimide-Pluronic F127 [AVE-Mal-PF127]	non-toxic	non-toxic			
avelumab-maleimide-polyethylene glycol 2K [AVE-Mal-PEG2K, reference compound]	non-toxic	non-toxic			
avelumab-maleimide-polyethylene glycol 6K [AVE-Mal-PEG6K, reference compound]	non-toxic	non-toxic			
avelumab-succinyl-Pluronic F68 [AVE-Suc-PF68]					cytotoxicity compared to avelumab antibody alone (AVE) or AVE-Suc-PEG2K/PEG5K [1]: greater increase in cytotoxicity; cytotoxicity compared to avelumab antibody alone (AVE) or AVE-Suc-PEG2K/PEG5K [2]: greater increase in cytotoxicity
avelumab-succinyl-Pluronic F127 [AVE-Suc-PF127]					cytotoxicity compared to avelumab antibody alone (AVE) or AVE-Suc-PEG2K/PEG5K [1]: greater increase in cytotoxicity; cytotoxicity compared to avelumab antibody alone (AVE) or AVE-Suc-PEG2K/PEG5K [2]: greater increase in cytotoxicity
maleimide-Pluronic F68 [Mal-PF68]					cytotoxicity [3]: non-cytotoxic
maleimide-Pluronic F68-chlorin e6 [Mal-PF68-Ce6]					fluorescence signals compared to CTX-Mal-PF68-Ce6 or CTX-Mal-PEG2K-Ce6 treatment group [4]: increased
maleimide-polyethylene glycol 2K-chlorin e6 [Mal-PEG2K-Ce6, reference compound]					fluorescence signals compared to CTX-Mal-PF68-Ce6 or CTX-Mal-PEG2K-Ce6 treatment group [4]: increased
ramucirumab-maleimide-Pluronic F68 [RAM-Mal-PF68]			non-toxic	non-toxic	
ramucirumab-maleimide-Pluronic F127 [RAM-Mal-PF127]			non-toxic	non-toxic	
ramucirumab-maleimide-polyethylene glycol 2K [RAM-Mal-PEG2K, reference compound]			non-toxic	non-toxic	
ramucirumab-maleimide-polyethylene glycol 6K [RAM-Mal-PEG6K, reference compound]			non-toxic	non-toxic	
